These results are taken from publication doi:10.64898/2025.12.31.697154.

pEC50: −log10 of the molar value. Like-named read-outs stand apart in the source and are kept apart here.

Common to all, as to test: FRET
The target in experiment [1] is OmSMAX1-D1M domain (Orobanche minor OF MAX2 1, D1M domain) (Orobanche minor).
The target is the same in experiment [2]. The source holds these as a separate data set.
For experiment [3] the target is unchanged. This is another data set of the same source.
The target is the same in experiment [4]. The source holds these as a separate data set.

Usually pEC50 stands for the negative decadic logarithm of the EC50, by convention in mol/L. A higher pEC50 goes with a low EC50. Regarding “OmKAI2d3 (Orobanche minor divergent 2 receptor d3)”, the pEC50 is 6.74 in experiment [1] and 3.64 in experiment [2].

With “OmKAI2d4 (Orobanche minor divergent 2 receptor d4)”, the pEC50 is 3.64 in experiment [3] and 6.82 in experiment [2].

With “OmKAI2d9 (Orobanche minor divergent 2 receptor d9)”, in experiment [2], the pEC50 was 3.69.

“OmKAI2d10 (Orobanche minor divergent 2 receptor d10)”: the pEC50 was 3.88 in experiment [2] and 3.68 in experiment [4].
